What was measured:
[1] = molecular target: HLA-A*11:01; experiment: IEDB peptide-MHC binding, purified MHC/direct/fluorescence; filed as Kd, often an IC50 or EC50 that approximates it; ≥ and ≤ were set here for values at or beyond the usual limits of such assays; conditions: source organism: Shigella flexneri
[2] = molecular target: HLA-B*27:05; experiment: as above; conditions: source organism: Shigella flexneri
[3] = molecular target: HLA-A*31:01; experiment: as above; conditions: source organism: Shigella flexneri
[4] = molecular target: HLA-A*01:01; experiment: as above; conditions: source organism: Shigella flexneri
[5] = molecular target: HLA-B*58:01; experiment: as above; conditions: source organism: Shigella flexneri
[6] = molecular target: HLA-A*26:01; experiment: as above; conditions: source organism: Shigella flexneri
[7] = molecular target: HLA-B*08:01; experiment: as above; conditions: source organism: Shigella flexneri
[8] = molecular target: HLA-B*40:01; experiment: as above; conditions: source organism: Shigella flexneri
[9] = molecular target: HLA-B*07:02; experiment: as above; conditions: source organism: Shigella flexneri
[10] = molecular target: HLA-A*03:01; experiment: as above; conditions: source organism: Shigella flexneri
[11] = molecular target: HLA-A*69:01; experiment: as above; conditions: source organism: Shigella flexneri
[12] = molecular target: HLA-A*02:01; experiment: as above; conditions: source organism: Shigella flexneri
[13] = molecular target: HLA-B*15:01; experiment: as above; conditions: source organism: Shigella flexneri
[14] = molecular target: HLA-B*44:02; experiment: as above; conditions: source organism: Shigella flexneri
[15] = molecular target: HLA-B*40:01; experiment: IEDB peptide-MHC binding, purified MHC/competitive/radioactivity; filed as Kd, often an IC50 or EC50 that approximates it; ≥ and ≤ were set here for values at or beyond the usual limits of such assays
[16] = molecular target: HLA-B*44:02; experiment: as above
[17] = molecular target: HLA-B*15:01; experiment: IEDB peptide-MHC binding, purified MHC/competitive/fluorescence; filed as Kd, often an IC50 or EC50 that approximates it; ≥ and ≤ were set here for values at or beyond the usual limits of such assays; conditions: source organism: Influenza A virus (A/Queensland/11/2001(H3N2))
[18] = molecular target: HLA-B*35:01; experiment: IEDB peptide-MHC binding, purified MHC/competitive/radioactivity; filed as Kd, often an IC50 or EC50 that approximates it; ≥ and ≤ were set here for values at or beyond the usual limits of such assays
[19] = molecular target: HLA-A*02:01; experiment: IEDB peptide-MHC binding, purified MHC/competitive/fluorescence; ≥ and ≤ were set here for values at or beyond the usual limits of such assays
[20] = molecular target: HLA-B*15:01; experiment: as above
[21] = molecular target: HLA-A*24:02; experiment: as above
[22] = molecular target: HLA-B*46:01; experiment: IEDB peptide-MHC binding, purified MHC/competitive/fluorescence; filed as Kd, often an IC50 or EC50 that approximates it; ≥ and ≤ were set here for values at or beyond the usual limits of such assays; conditions: source organism: Entamoeba histolytica HM-1:IMSS
[23] = molecular target: HLA-B*51:01; experiment: IEDB peptide-MHC binding, purified MHC/competitive/radioactivity; filed as Kd, often an IC50 or EC50 that approximates it; ≥ and ≤ were set here for values at or beyond the usual limits of such assays
[24] = molecular target: HLA-B*44:03; experiment: as above; conditions: source organism: Dengue virus 3 Martinique/1243/1999
[25] = molecular target: HLA-A*32:01; experiment: as above; conditions: source organism: Dengue virus 3 Martinique/1243/1999
[26] = molecular target: HLA-A*30:02; experiment: as above; conditions: source organism: Dengue virus 3 Sri Lanka/1266/2000
[27] = source organism: Dengue virus 2 Jamaica/1409/1983
[28] = source organism: Dengue virus 3 Martinique/1243/1999
[29] = source organism: Zaire ebolavirus
[30] = source organism: Dengue virus 1 Brazil/97-11/1997
[31] = source organism: Vaccinia virus Copenhagen

**Q.** How did the Kd [1] turn out when DRLHPPNKL was run?
**A.** ≥ 20 µM

**Q.** What about the Kd [2] of the same sequence?
**A.** ≥ 20 µM

**Q.** What about the Kd [3] of the same sequence?
**A.** ≥ 20 µM

**Q.** And the Kd [4]?
**A.** ≥ 20 µM

**Q.** And the Kd [5]?
**A.** ≥ 20 µM

**Q.** And the Kd [6]?
**A.** ≥ 20 µM

**Q.** What about the Kd [7] of the same sequence?
**A.** ≥ 20 µM

**Q.** And the Kd [8]?
**A.** 4.25 µM

**Q.** What about the Kd [9] of the same sequence?
**A.** ≥ 20 µM

**Q.** And the Kd [10]?
**A.** ≥ 20 µM

**Q.** And the Kd [11]?
**A.** ≥ 20 µM

**Q.** And the Kd [12]?
**A.** ≥ 20 µM

**Q.** What about the Kd [13] of the same sequence?
**A.** ≥ 20 µM

**Q.** And the Kd [14]?
**A.** ≥ 20 µM

**Q.** FEKQLGQVM was tested. Which Kd [15, 27] did it give?
**A.** 527 nM

**Q.** What about the Kd [16, 27] of the same sequence?
**A.** 319 nM

**Q.** With GMMDGWYGF as the sequence, how does the Kd [17] read?
**A.** 21.9 nM

**Q.** Which Kd [18, 28] does the source give for GPTPELEEEM here?
**A.** 4170 nM

**Q.** GQQFYWPVM was tested. Which IC50 [19, 29] did it give?
**A.** 5.74 µM

**Q.** And the IC50 [20, 29]?
**A.** 1.52 µM

**Q.** What about the IC50 [21, 29] of the same sequence?
**A.** 114 nM

**Q.** How did the IC50 [19, 29] turn out when GVPPKVVNY was run?
**A.** ≥ 199 µM

**Q.** What about the IC50 [20, 29] of the same sequence?
**A.** ≥ 211 µM

**Q.** How did the IC50 [19, 29] turn out when HMMKDEPVV was run?
**A.** 8.76 µM

**Q.** And the IC50 [20, 29]?
**A.** 46.3 µM

**Q.** With IAKGIDAEF as the sequence, how does the Kd [22] read?
**A.** 168 nM

**Q.** Which Kd [18, 30] does the source give for IPEPDRQRTP here?
**A.** 23.1 nM

**Q.** How did the Kd [23, 28] turn out when IPLQWIASAI was run?
**A.** 7.48 nM

**Q.** ISIKLTDSL was tested. Which IC50 [19, 31] did it give?
**A.** 7.32 µM

**Q.** And the IC50 [20, 31]?
**A.** 5.59 µM

**Q.** And the IC50 [21, 31]?
**A.** 3660 nM

**Q.** For KEISNMLSI, which Kd [24] is on record?
**A.** 21.8 nM

**Q.** And the Kd [15, 28]?
**A.** 6.44 nM

**Q.** And the Kd [25]?
**A.** 6.37 µM

**Q.** And the Kd [16, 28]?
**A.** 28.2 nM

**Q.** For KPWDVIPMV, which Kd [23, 30] is on record?
**A.** 1110 nM

**Q.** Which Kd ([18]; source organism: Dengue virus 3 Sri Lanka/1266/2000) does the source give for LAGPISQHNY here?
**A.** 187 nM

**Q.** And the Kd [26]?
**A.** ≥ 60.3 µM
